Measurements taken from article PMC10421740, “A universal deep-learning model for zinc finger design enables transcription factor reprogramming”.

Legend:
[1] = biological target: ZFN pair Astr 2ABC + Astr 2FED (synthetic construct, UniProt P14870;P14870 384-579;384-579); assay: Zn; U2OS eGFP disruption, 3 days after nucleofection; conditions: tags: N-terminal 3xFLAG and SV40 NLS (kept in the assay, left out here); copies: 1;1
[2] = biological target: ZFN pair Astr 31ABC + Astr 31FED (synthetic construct, UniProt P14870;P14870 384-579;384-579); assay: as above; conditions: tags: N-terminal 3xFLAG and SV40 NLS (kept in the assay, left out here); copies: 1;1
[3] = biological target: ZFN pair Astr 28ABC + Astr 28FED (synthetic construct, UniProt P14870;P14870 384-579;384-579); assay: as above; conditions: tags: N-terminal 3xFLAG and SV40 NLS (kept in the assay, left out here); copies: 1;1
[4] = biological target: ZFN pair Astr 18ABC + Astr 18FED (synthetic construct, UniProt P14870;P14870 384-579;384-579); assay: as above; conditions: tags: N-terminal 3xFLAG and SV40 NLS (kept in the assay, left out here); copies: 1;1
[5] = biological target: ZFN pair Astr 29ABC + Astr 29FED (synthetic construct, UniProt P14870;P14870 384-579;384-579); assay: as above; conditions: tags: N-terminal 3xFLAG and SV40 NLS (kept in the assay, left out here); copies: 1;1
[6] = biological target: ZFN pair Astr 1ABC + Astr 1FED (synthetic construct, UniProt P14870;P14870 384-579;384-579); assay: as above; conditions: tags: N-terminal 3xFLAG and SV40 NLS (kept in the assay, left out here); copies: 1;1
[7] = biological target: T1, KLF6 reprogrammed with array Tet2 For (synthetic construct, UniProt Q99612 1-199); assay: Zn; HEK293T, 7x tetO minimal CMV GFP reporter
T1 chain: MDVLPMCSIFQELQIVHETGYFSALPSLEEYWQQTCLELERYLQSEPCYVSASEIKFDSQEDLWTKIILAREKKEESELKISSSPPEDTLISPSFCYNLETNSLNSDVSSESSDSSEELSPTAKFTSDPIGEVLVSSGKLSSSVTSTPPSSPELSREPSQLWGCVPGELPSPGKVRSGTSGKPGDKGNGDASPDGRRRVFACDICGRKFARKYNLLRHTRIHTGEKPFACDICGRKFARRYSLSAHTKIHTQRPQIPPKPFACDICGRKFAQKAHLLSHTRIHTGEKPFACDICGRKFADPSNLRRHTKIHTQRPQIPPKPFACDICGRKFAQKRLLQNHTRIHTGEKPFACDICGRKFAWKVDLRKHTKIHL

[8] = biological target: T2, KLF6 reprogrammed with array Tet1 For (synthetic construct, UniProt Q99612 1-199); assay: Zn; HEK293T, 7x tetO minimal CMV GFP reporter
T2 chain: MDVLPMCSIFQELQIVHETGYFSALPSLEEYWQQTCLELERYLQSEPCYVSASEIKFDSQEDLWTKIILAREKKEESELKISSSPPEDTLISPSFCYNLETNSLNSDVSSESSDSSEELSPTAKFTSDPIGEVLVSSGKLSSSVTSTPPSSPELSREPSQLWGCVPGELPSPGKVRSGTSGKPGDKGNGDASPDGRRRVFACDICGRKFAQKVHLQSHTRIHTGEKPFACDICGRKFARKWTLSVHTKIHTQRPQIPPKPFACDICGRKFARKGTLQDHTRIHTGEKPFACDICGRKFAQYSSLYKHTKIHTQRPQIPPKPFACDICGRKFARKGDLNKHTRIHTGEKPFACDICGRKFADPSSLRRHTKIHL

[9] = biological target: ZIM3 reprogrammed with array Tet2 For (synthetic construct, UniProt Q96PE6 1-166); assay: Zn; HEK293T, 7x tetO CMV eGFP reporter
[10] = biological target: ZIM3 reprogrammed with array Tet1 For (synthetic construct, UniProt Q96PE6 1-166); assay: Zn; HEK293T, 7x tetO CMV eGFP reporter
[11] = biological target: ZFN pair Astr 26ABC + Astr 26FED (synthetic construct, UniProt P14870;P14870 384-579;384-579); assay: Zn; U2OS eGFP disruption, 3 days after nucleofection; conditions: tags: N-terminal 3xFLAG and SV40 NLS (kept in the assay, left out here); copies: 1;1
[12] = biological target: ZFN pair Astr 10ABC + Astr 10FED (synthetic construct, UniProt P14870;P14870 384-579;384-579); assay: as above; conditions: tags: N-terminal 3xFLAG and SV40 NLS (kept in the assay, left out here); copies: 1;1
[13] = biological target: ZFN pair Astr 24ABC + Astr 24FED (synthetic construct, UniProt P14870;P14870 384-579;384-579); assay: as above; conditions: tags: N-terminal 3xFLAG and SV40 NLS (kept in the assay, left out here); copies: 1;1
[14] = biological target: ZFN pair Astr 12ABC + Astr 12FED (synthetic construct, UniProt P14870;P14870 384-579;384-579); assay: as above; conditions: tags: N-terminal 3xFLAG and SV40 NLS (kept in the assay, left out here); copies: 1;1
[15] = biological target: ZFN pair Astr 25ABC + Astr 25FED (synthetic construct, UniProt P14870;P14870 384-579;384-579); assay: as above; conditions: tags: N-terminal 3xFLAG and SV40 NLS (kept in the assay, left out here); copies: 1;1
[16] = biological target: ZFN pair Astr 23ABC + Astr 23FED (synthetic construct, UniProt P14870;P14870 384-579;384-579); assay: as above; conditions: tags: N-terminal 3xFLAG and SV40 NLS (kept in the assay, left out here); copies: 1;1
[17] = biological target: ZFN pair Astr 20ABC + Astr 20FED (synthetic construct, UniProt P14870;P14870 384-579;384-579); assay: as above; conditions: tags: N-terminal 3xFLAG and SV40 NLS (kept in the assay, left out here); copies: 1;1
[18] = biological target: ZFN pair Astr 22ABC + Astr 22FED (synthetic construct, UniProt P14870;P14870 384-579;384-579); assay: as above; conditions: tags: N-terminal 3xFLAG and SV40 NLS (kept in the assay, left out here); copies: 1;1
[19] = biological target: ZFN pair Astr 27ABC + Astr 27FED (synthetic construct, UniProt P14870;P14870 384-579;384-579); assay: as above; conditions: tags: N-terminal 3xFLAG and SV40 NLS (kept in the assay, left out here); copies: 1;1
[20] = biological target: ZFN pair Astr 30ABC + Astr 30FED (synthetic construct, UniProt P14870;P14870 384-579;384-579); assay: as above; conditions: tags: N-terminal 3xFLAG and SV40 NLS (kept in the assay, left out here); copies: 1;1

Sequence of ZFN pair Astr 22ABC + Astr 22FED (P14870 other isoform, or with tags, fused parts or gaps, chain 1 of 2): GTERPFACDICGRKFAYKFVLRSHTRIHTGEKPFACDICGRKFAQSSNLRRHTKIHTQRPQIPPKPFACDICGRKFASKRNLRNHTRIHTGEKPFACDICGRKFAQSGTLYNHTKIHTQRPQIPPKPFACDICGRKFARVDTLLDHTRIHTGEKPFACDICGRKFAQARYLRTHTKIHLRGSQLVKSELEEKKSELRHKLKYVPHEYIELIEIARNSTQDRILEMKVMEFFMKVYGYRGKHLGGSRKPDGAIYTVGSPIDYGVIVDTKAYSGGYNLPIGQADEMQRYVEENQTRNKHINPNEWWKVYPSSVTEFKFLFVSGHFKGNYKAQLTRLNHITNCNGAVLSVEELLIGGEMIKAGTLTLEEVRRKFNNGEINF
Sequence of ZFN pair Astr 22ABC + Astr 22FED (P14870 other isoform, or with tags, fused parts or gaps, chain 2 of 2): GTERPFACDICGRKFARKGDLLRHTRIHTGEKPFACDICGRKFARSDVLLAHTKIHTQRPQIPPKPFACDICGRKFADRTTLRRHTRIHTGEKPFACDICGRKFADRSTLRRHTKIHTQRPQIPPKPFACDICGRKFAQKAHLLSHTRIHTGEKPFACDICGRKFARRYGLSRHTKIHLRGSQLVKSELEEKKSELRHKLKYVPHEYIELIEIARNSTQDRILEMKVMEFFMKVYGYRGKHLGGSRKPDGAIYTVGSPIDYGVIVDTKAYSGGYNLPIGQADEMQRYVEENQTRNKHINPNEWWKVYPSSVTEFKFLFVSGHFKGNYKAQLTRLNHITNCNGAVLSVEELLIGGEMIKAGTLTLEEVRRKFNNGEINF
Sequence of ZFN pair Astr 27ABC + Astr 27FED (P14870 other isoform, or with tags, fused parts or gaps, chain 1 of 2): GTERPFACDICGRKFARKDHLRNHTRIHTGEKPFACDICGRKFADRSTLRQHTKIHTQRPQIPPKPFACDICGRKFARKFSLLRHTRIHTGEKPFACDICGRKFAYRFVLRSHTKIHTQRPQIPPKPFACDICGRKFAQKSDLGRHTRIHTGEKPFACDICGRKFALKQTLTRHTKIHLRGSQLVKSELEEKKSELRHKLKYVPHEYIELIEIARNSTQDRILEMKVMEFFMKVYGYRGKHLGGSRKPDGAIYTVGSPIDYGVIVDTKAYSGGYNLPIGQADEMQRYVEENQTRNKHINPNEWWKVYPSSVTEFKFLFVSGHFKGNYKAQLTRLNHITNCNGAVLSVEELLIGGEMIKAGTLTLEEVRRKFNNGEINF
Sequence of ZFN pair Astr 27ABC + Astr 27FED (P14870 other isoform, or with tags, fused parts or gaps, chain 2 of 2): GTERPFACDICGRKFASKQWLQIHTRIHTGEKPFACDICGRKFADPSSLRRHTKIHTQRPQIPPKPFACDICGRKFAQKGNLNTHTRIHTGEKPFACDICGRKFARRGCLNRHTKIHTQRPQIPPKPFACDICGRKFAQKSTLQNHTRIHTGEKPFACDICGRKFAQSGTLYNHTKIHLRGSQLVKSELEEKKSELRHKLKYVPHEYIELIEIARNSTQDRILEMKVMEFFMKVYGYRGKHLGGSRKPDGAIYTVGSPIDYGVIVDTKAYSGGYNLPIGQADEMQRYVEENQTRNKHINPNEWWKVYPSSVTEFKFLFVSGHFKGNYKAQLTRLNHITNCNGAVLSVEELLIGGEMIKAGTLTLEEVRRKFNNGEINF
Sequence of ZFN pair Astr 10ABC + Astr 10FED (P14870 other isoform, or with tags, fused parts or gaps, chain 1 of 2): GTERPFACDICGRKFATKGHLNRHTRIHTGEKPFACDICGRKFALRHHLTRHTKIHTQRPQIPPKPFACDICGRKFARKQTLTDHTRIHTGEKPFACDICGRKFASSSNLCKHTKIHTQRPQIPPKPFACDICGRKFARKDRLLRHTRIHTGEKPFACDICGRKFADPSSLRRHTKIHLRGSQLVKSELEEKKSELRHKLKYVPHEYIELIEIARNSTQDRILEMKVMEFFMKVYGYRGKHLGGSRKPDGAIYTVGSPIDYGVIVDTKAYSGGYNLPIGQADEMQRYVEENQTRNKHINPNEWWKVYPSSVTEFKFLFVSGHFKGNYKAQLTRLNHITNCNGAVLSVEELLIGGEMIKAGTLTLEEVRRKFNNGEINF
Sequence of ZFN pair Astr 10ABC + Astr 10FED (P14870 other isoform, or with tags, fused parts or gaps, chain 2 of 2): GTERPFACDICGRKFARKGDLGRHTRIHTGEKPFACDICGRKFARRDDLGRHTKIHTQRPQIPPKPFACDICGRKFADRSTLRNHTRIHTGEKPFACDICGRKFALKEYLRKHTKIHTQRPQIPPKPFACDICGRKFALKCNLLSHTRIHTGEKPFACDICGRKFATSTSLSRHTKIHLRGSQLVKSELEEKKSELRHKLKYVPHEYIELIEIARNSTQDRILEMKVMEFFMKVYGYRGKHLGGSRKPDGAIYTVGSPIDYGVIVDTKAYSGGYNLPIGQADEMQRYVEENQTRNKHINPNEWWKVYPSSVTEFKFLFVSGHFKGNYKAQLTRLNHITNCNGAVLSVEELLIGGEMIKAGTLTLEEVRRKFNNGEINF
Sequence of ZFN pair Astr 18ABC + Astr 18FED (P14870 other isoform, or with tags, fused parts or gaps, chain 1 of 2): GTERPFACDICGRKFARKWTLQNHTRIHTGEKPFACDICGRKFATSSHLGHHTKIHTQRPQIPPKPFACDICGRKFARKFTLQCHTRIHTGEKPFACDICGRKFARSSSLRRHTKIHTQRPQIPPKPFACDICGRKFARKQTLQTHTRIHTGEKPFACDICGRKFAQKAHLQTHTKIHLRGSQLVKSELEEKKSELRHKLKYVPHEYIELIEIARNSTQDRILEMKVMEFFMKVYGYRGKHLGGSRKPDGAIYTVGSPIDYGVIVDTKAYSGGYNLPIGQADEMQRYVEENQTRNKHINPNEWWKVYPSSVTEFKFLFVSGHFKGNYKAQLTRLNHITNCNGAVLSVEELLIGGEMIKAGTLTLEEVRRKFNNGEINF
Sequence of ZFN pair Astr 18ABC + Astr 18FED (P14870 other isoform, or with tags, fused parts or gaps, chain 2 of 2): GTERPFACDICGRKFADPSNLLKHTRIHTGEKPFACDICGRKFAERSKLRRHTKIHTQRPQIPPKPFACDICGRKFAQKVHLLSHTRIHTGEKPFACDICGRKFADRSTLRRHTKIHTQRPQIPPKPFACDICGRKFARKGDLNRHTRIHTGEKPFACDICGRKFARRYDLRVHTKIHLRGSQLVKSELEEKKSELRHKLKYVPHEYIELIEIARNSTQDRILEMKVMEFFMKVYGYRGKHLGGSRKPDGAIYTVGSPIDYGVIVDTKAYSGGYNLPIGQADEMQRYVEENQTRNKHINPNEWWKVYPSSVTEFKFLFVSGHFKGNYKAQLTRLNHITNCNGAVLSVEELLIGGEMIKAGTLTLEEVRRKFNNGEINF
Sequence of ZIM3 reprogrammed with array Tet1 For (Q96PE6 other isoform, or with tags, fused parts or gaps): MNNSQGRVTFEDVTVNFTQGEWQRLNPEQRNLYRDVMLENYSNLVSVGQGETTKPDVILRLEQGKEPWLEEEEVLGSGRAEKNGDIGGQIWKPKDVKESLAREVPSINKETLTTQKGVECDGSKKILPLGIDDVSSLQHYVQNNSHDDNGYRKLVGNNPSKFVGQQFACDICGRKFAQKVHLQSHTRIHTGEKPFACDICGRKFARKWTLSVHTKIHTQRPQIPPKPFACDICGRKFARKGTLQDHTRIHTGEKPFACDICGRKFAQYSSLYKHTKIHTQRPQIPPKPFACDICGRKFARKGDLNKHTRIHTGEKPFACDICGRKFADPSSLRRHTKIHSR
Sequence of ZFN pair Astr 24ABC + Astr 24FED (P14870 other isoform, or with tags, fused parts or gaps, chain 1 of 2): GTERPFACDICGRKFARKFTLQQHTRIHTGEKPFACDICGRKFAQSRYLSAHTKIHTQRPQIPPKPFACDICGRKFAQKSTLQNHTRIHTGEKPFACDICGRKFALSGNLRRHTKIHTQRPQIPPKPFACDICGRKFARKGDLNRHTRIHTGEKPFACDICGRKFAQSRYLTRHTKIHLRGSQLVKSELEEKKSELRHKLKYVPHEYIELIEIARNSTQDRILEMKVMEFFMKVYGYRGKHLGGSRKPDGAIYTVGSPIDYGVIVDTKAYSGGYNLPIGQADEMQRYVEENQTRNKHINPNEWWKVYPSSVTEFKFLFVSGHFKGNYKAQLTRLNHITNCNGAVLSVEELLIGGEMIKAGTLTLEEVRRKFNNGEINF
Sequence of ZFN pair Astr 24ABC + Astr 24FED (P14870 other isoform, or with tags, fused parts or gaps, chain 2 of 2): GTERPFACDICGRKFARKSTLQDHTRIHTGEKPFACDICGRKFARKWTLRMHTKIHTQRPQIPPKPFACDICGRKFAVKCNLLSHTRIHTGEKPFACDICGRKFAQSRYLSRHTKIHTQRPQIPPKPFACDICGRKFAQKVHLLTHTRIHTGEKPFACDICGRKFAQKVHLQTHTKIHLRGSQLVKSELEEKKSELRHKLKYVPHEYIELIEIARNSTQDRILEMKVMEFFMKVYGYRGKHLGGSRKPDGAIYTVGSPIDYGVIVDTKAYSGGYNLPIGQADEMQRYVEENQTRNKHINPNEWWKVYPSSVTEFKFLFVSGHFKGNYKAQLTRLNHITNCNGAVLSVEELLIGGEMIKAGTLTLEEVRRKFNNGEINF
Sequence of ZFN pair Astr 20ABC + Astr 20FED (P14870 other isoform, or with tags, fused parts or gaps, chain 1 of 2): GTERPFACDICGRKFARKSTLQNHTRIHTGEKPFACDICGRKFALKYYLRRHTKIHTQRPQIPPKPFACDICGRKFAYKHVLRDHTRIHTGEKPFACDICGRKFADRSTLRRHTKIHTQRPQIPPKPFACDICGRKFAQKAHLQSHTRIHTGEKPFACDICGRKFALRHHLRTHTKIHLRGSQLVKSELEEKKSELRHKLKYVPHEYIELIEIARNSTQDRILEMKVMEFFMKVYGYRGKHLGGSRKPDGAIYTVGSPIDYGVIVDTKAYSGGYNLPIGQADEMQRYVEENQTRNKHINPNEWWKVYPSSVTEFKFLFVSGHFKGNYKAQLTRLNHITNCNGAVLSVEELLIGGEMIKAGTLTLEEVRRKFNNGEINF
Sequence of ZFN pair Astr 20ABC + Astr 20FED (P14870 other isoform, or with tags, fused parts or gaps, chain 2 of 2): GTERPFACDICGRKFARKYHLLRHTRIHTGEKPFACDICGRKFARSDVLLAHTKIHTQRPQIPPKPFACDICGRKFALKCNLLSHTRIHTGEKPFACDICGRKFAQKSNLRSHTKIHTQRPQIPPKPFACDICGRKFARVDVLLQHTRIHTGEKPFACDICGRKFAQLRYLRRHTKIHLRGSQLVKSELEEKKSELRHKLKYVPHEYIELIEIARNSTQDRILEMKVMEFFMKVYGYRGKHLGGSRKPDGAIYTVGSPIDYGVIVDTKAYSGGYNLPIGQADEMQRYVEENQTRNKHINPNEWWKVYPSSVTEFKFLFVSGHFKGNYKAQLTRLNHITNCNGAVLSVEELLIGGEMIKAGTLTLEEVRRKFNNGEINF

B1: eGFP site 2 (12 fingers) (dsDNA)
DNA 1: AGTTCAGCGTGTCCGGCGAGGGCGAGGGCGATGCCACCTACGGCAAGC
DNA 2: GCTTGCCGTAGGTGGCATCGCCCTCGCCCTCGCCGGACACGCTGAACT
**Q.** B1 was tested. Which binding signal [1] did it give?
**A.** ~90 % GFP-negative cells (higher = more activity)

B2: eGFP site 31 (12 fingers) (dsDNA)
DNA 1: GGCAAGCTGACCCTGAAGTTCATCTGCACCACCGGCAAGCTGCCCGTG
DNA 2: CACGGGCAGCTTGCCGGTGGTGCAGATGAACTTCAGGGTCAGCTTGCC
**Q.** How did the binding signal [2] turn out when B2 was run?
**A.** ~72 % GFP-negative cells (higher = more activity)

B3: eGFP site 28 (12 fingers) (dsDNA)
DNA 1: TCCAGGAGCGCACCATCTTCTTCAAGGACGACGGCAACTACAAGACCC
DNA 2: GGGTCTTGTAGTTGCCGTCGTCCTTGAAGAAGATGGTGCGCTCCTGGA
**Q.** B3 was tested. Which binding signal [3] did it give?
**A.** ~32 % GFP-negative cells (higher = more activity)

B4: eGFP site 18 (12 fingers) (dsDNA)
DNA 1: ACATGAAGCAGCACGACTTCTTCAAGTCCGCCATGCCCGAAGGCTACG
DNA 2: CGTAGCCTTCGGGCATGGCGGACTTGAAGAAGTCGTGCTGCTTCATGT
**Q.** Which binding signal [4] does the source give for B4 here?
**A.** ~71 % GFP-negative cells (higher = more activity)

B5: eGFP site 29 (12 fingers) (dsDNA)
DNA 1: CGGCCACAAGTTCAGCGTGTCCGGCGAGGGCGAGGGCGATGCCACCTA
DNA 2: TAGGTGGCATCGCCCTCGCCCTCGCCGGACACGCTGAACTTGTGGCCG
**Q.** Which binding signal [5] does the source give for B5 here?
**A.** ~40 % GFP-negative cells (higher = more activity)

B6: eGFP site 1 (12 fingers) (dsDNA)
DNA 1: GAGGAGCTGTTCACCGGGGTGGTGCCCATCCTGGTCGAGCTGGACGGC
DNA 2: GCCGTCCAGCTCGACCAGGATGGGCACCACCCCGGTGAACAGCTCCTC
**Q.** B6 was tested. Which binding signal [6] did it give?
**A.** ~85 % GFP-negative cells (higher = more activity)

B7: tetO (dsDNA)
DNA 1: GTCTCTATCACTGATAGGGAGA
DNA 2: TCTCCCTATCAGTGATAGAGAC
**Q.** Which binding signal [7] does the source give for B7 here?
**A.** ~15500 mean GFP fluorescence (higher = more activity)

**Q.** What about the binding signal [8] of the same binder?
**A.** ~9500 mean GFP fluorescence (higher = more activity)

**Q.** And the binding signal [9]?
**A.** ~0.51 normalised eGFP fluorescence (lower = more activity, repressor)

**Q.** And the binding signal [10]?
**A.** ~0.68 normalised eGFP fluorescence (lower = more activity, repressor)

B8: eGFP site 26 (12 fingers) (dsDNA)
DNA 1: CCGCGCCGAGGTGAAGTTCGAGGGCGACACCCTGGTGAACCGCATCGA
DNA 2: TCGATGCGGTTCACCAGGGTGTCGCCCTCGAACTTCACCTCGGCGCGG
**Q.** How did the binding signal [11] turn out when B8 was run?
**A.** ~47 % GFP-negative cells (higher = more activity)

B9: eGFP site 10 (12 fingers) (dsDNA)
DNA 1: TGCCACCTACGGCAAGCTGACCCTGAAGTTCATCTGCACCACCGGCAA
DNA 2: TTGCCGGTGGTGCAGATGAACTTCAGGGTCAGCTTGCCGTAGGTGGCA
**Q.** For B9, which binding signal [12] is on record?
**A.** ~78 % GFP-negative cells (higher = more activity)

B10: eGFP site 24 (12 fingers) (dsDNA)
DNA 1: ACAACGTCTATATCATGGCCGACAAGCAGAAGAACGGCATCAAGGTGA
DNA 2: TCACCTTGATGCCGTTCTTCTGCTTGTCGGCCATGATATAGACGTTGT
**Q.** For B10, which binding signal [13] is on record?
**A.** ~52 % GFP-negative cells (higher = more activity)

B11: eGFP site 12 (12 fingers) (dsDNA)
DNA 1: TGACCCTGAAGTTCATCTGCACCACCGGCAAGCTGCCCGTGCCCTGGC
DNA 2: GCCAGGGCACGGGCAGCTTGCCGGTGGTGCAGATGAACTTCAGGGTCA
**Q.** B11 was tested. Which binding signal [14] did it give?
**A.** ~43 % GFP-negative cells (higher = more activity)

B12: eGFP site 25 (12 fingers) (dsDNA)
DNA 1: GCGAGGGCGAGGGCGATGCCACCTACGGCAAGCTGACCCTGAAGTTCA
DNA 2: TGAACTTCAGGGTCAGCTTGCCGTAGGTGGCATCGCCCTCGCCCTCGC
**Q.** Which binding signal [15] does the source give for B12 here?
**A.** ~39 % GFP-negative cells (higher = more activity)

B13: eGFP site 23 (12 fingers) (dsDNA)
DNA 1: GGCATCGACTTCAAGGAGGACGGCAACATCCTGGGGCACAAGCTGGAG
DNA 2: CTCCAGCTTGTGCCCCAGGATGTTGCCGTCCTCCTTGAAGTCGATGCC
**Q.** With B13 as the binder, how does the binding signal [16] read?
**A.** ~35 % GFP-negative cells (higher = more activity)

B14: eGFP site 20 (12 fingers) (dsDNA)
DNA 1: TCGAGCTGAAGGGCATCGACTTCAAGGAGGACGGCAACATCCTGGGGC
DNA 2: GCCCCAGGATGTTGCCGTCCTCCTTGAAGTCGATGCCCTTCAGCTCGA
**Q.** For B14, which binding signal [17] is on record?
**A.** ~42 % GFP-negative cells (higher = more activity)

B15: eGFP site 22 (12 fingers) (dsDNA)
DNA 1: CAAGTTCAGCGTGTCCGGCGAGGGCGAGGGCGATGCCACCTACGGCAA
DNA 2: TTGCCGTAGGTGGCATCGCCCTCGCCCTCGCCGGACACGCTGAACTTG
**Q.** For B15, which binding signal [18] is on record?
**A.** ~73 % GFP-negative cells (higher = more activity)

B16: eGFP site 27 (12 fingers) (dsDNA)
DNA 1: TCCTGGGGCACAAGCTGGAGTACAACTACAACAGCCACAACGTCTATA
DNA 2: TATAGACGTTGTGGCTGTTGTAGTTGTACTCCAGCTTGTGCCCCAGGA
**Q.** B16 was tested. Which binding signal [19] did it give?
**A.** ~46 % GFP-negative cells (higher = more activity)

B17: eGFP site 30 (12 fingers) (dsDNA)
DNA 1: CAAGGGCGAGGAGCTGTTCACCGGGGTGGTGCCCATCCTGGTCGAGCT
DNA 2: AGCTCGACCAGGATGGGCACCACCCCGGTGAACAGCTCCTCGCCCTTG
**Q.** For B17, which binding signal [20] is on record?
**A.** ~14 % GFP-negative cells (higher = more activity)
